Reference: US20200207853A1 (PHANES THERAPEUTICS, published 2020)

Target: T1, Recombinant human CD47(ECD)-HIS (human, UniProt Q08722 19-139, limits assumed)
T1 construct: also called huCD47-HIS; not shown: HIS tag
Test: competition ELISA: blocking of SIRPα binding to CD47(ECD)-HIS

T1 sequence (Q08722 19-139 limits assumed): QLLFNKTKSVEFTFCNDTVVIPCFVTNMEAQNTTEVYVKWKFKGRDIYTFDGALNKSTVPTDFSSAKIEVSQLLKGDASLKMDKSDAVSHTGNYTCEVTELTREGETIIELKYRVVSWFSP

Row | Binder | IC50 [nM]
1 | H6L5 (antibody, V domains shown, also called humanized anti-CD47 mAb H6L5) VH: QIQLVQSGAEVKKPGASVKVSCKASGYTFTAYYINWVRQAPGQRLEWIGWIYPGSGNTKYNEKFKGRVTLTVDTSASTAYIELSSLRSEDTAVYFCARRGPWYFDVWGQGTTVTVSS VL: EIVMTQSPATLSLSPGERATLSCRASENVGTYVSWYQQKPGQAPNLLIYGASNRYTGIPARFSGSGSGTDFTLTISSLQPEDFAVYHCGQTYSYPLTFGQGTKLEIK | 9.67
2 | H2L3 (antibody, V domains shown, also called humanized anti-CD47 mAb H2L3) VH: QVQLVQSGAEVKKPGASVKLSCKASGYTFTSYWMHWVRQAPGQGLEWMGNIDPSDSETHYNQKFKDRVTLTVDTSTSTAYMELSSLRSEDTAVYYCSRWGYYGKSAMDYWGQGTLVTVSS VL: AVQLTQSPSFLSASVGQRITINCRASKSISKYLAWYQEKPGKANKLLIYSGSTLQSGIPSRFSGSGSGTDFTLTISSLQPEDFAMYYCQQHNEYPWTFGGGTKVEIK | 9.56
3 | H3L2 (antibody, V domains shown, also called humanized anti-CD47 mAb H3L2) VH: QVQLVQSGAEVKKPGASVKLSCKASGYTFTSYWMHWVRQAPGQGLEWIGNIDPSDSETHYNQKFKDRATLTVDTSTSTAYMELSSLRSEDTAVYYCSRWGYYGKSAMDYWGQGTLVTVSS VL: AVQLTQSPSFLSASVGQRITINCRASKSISKYLAWYQQKPGKANKLLIYSGSTLQSGVPSRFSGSGSGTEFTLTISSLQPEDFAMYYCQQHNEYPWTFGGGTKVEIK | 7.88
4 | H1L3 (antibody, V domains shown, also called humanized anti-CD47 mAb H1L3) VH: QVQLVQSGAEVKKPGASVKVSCKASGYTFTSYWMHWVRQAPGQGLEWMGNIDPSDSETHYNQKFKDRVTLTVDTSTSTVYMELSSLRSEDTAVYYCSRWGYYGKSAMDYWGQGTLVTVSS VL: AVQLTQSPSFLSASVGQRITINCRASKSISKYLAWYQEKPGKANKLLIYSGSTLQSGIPSRFSGSGSGTDFTLTISSLQPEDFAMYYCQQHNEYPWTFGGGTKVEIK | 7.43
5 | H3L4 (antibody, V domains shown, also called humanized anti-CD47 mAb H3L4) VH: QVQLVQSGAEVKKPGASVKLSCKASGYTFTSYWMHWVRQAPGQGLEWIGNIDPSDSETHYNQKFKDRATLTVDTSTSTAYMELSSLRSEDTAVYYCSRWGYYGKSAMDYWGQGTLVTVSS VL: AVQITQSPSFLSASVGQTITINCRASKSISKYLAWYQEKPGKANKLLIYSGSTLQSGIPSRFSGSGSGTDFTLTISSLEPEDFAMYYCQQHNEYPWTFGGGTKVEIK | 5.35
6 | H2L4 (antibody, V domains shown, also called humanized anti-CD47 mAb H2L4) VH: QVQLVQSGAEVKKPGASVKLSCKASGYTFTSYWMHWVRQAPGQGLEWMGNIDPSDSETHYNQKFKDRVTLTVDTSTSTAYMELSSLRSEDTAVYYCSRWGYYGKSAMDYWGQGTLVTVSS VL: AVQITQSPSFLSASVGQTITINCRASKSISKYLAWYQEKPGKANKLLIYSGSTLQSGIPSRFSGSGSGTDFTLTISSLEPEDFAMYYCQQHNEYPWTFGGGTKVEIK | 6.52
7 | H1L4 (antibody, V domains shown, also called humanized anti-CD47 mAb H1L4) VH: QVQLVQSGAEVKKPGASVKVSCKASGYTFTSYWMHWVRQAPGQGLEWMGNIDPSDSETHYNQKFKDRVTLTVDTSTSTVYMELSSLRSEDTAVYYCSRWGYYGKSAMDYWGQGTLVTVSS VL: AVQITQSPSFLSASVGQTITINCRASKSISKYLAWYQEKPGKANKLLIYSGSTLQSGIPSRFSGSGSGTDFTLTISSLEPEDFAMYYCQQHNEYPWTFGGGTKVEIK | 8.09
8 | H2L1 (antibody, V domains shown, also called humanized anti-CD47 mAb H2L1) VH: QVQLVQSGAEVKKPGASVKLSCKASGYTFTSYWMHWVRQAPGQGLEWMGNIDPSDSETHYNQKFKDRVTLTVDTSTSTAYMELSSLRSEDTAVYYCSRWGYYGKSAMDYWGQGTLVTVSS VL: AVQLTQSPSFLSASVGDRVTITCRASKSISKYLAWYQQKPGKANKLLIYSGSTLQSGVPSRFSGSGSGTEFTLTISSLQPEDFAMYYCQQHNEYPWTFGGGTKVEIK | 4.73
9 | H1L2 (antibody, V domains shown, Humanized from mouse 13B18A; also called humanized anti-CD47 mAb H1L2) VH: QVQLVQSGAEVKKPGASVKVSCKASGYTFTSYWMHWVRQAPGQGLEWMGNIDPSDSETHYNQKFKDRVTLTVDTSTSTVYMELSSLRSEDTAVYYCSRWGYYGKSAMDYWGQGTLVTVSS VL: AVQLTQSPSFLSASVGQRITINCRASKSISKYLAWYQQKPGKANKLLIYSGSTLQSGVPSRFSGSGSGTEFTLTISSLQPEDFAMYYCQQHNEYPWTFGGGTKVEIK | 6.8

Next, values leading:

Row | IC50 [nM] | Binder
10 | 1.05 | H8L10 (antibody, V domains shown, Humanized from mouse 17C6A; also called humanized anti-CD47 mAb H8L10) VH: QVQLVQSGAEVKKPGASVKVSCKASGYTFTSYWMHWVRQAPGQGLEWIGNIDPSDSETHYAQKFQGRVTLTVDKSTSTVYMELSSLRSEDTAVYYCAGTDLAYWGQGTLVTVSS VL: EIVMTQSPGTLSLSPGERATLSCHASQNINVWLSWYQQKPGQAPRLLIYKASNLHTGIPDRFSGSGSGTDFTLTISRLEPEDFAVYYCQQGQSYPFTFGQGTKVEIK
11 | 13.2 | H6L8 (antibody, V domains shown, also called humanized anti-CD47 mAb H6L8) VH: QIQLVQSGAEVKKPGASVKVSCKASGYTFTAYYINWVRQAPGQRLEWIGWIYPGSGNTKYNEKFKGRVTLTVDTSASTAYIELSSLRSEDTAVYFCARRGPWYFDVWGQGTTVTVSS VL: NIVMTQSPATLSLSPGERATLSCKASENVGTYVSWYQQKPGQSPNLLIYGASNRYTGVPDRFSGSGSATDFTLTISSLQPEDFADYHCGQTYSYPLTFGQGTKLEIK
12 | 39.2 | H6L7 (antibody, V domains shown, also called humanized anti-CD47 mAb H6L7) VH: QIQLVQSGAEVKKPGASVKVSCKASGYTFTAYYINWVRQAPGQRLEWIGWIYPGSGNTKYNEKFKGRVTLTVDTSASTAYIELSSLRSEDTAVYFCARRGPWYFDVWGQGTTVTVSS VL: EIVMTQSPATLSLSPGERATLSCKASENVGTYVSWYQQKPGQSPNLLIYGASNRYTGIPDRFSGSGSGTDFTLTISSLQPEDFAVYHCGQTYSYPLTFGQGTKLEIK
13 | 15.1 | H5L5 (antibody, V domains shown, also called humanized anti-CD47 mAb H5L5) VH: QIQLVQSGAEVKKPGASVKVSCKASGYTFTAYYINWVRQAPGQRLEWIGWIYPGSGNTKYNEKFKGRVTLTVDTSASTAYIELSSLRSEDTAVYYCARRGPWYFDVWGQGTTVTVSS VL: EIVMTQSPATLSLSPGERATLSCRASENVGTYVSWYQQKPGQAPNLLIYGASNRYTGIPARFSGSGSGTDFTLTISSLQPEDFAVYHCGQTYSYPLTFGQGTKLEIK
14 | 9.6 | H3L9 (antibody, V domains shown, also called humanized anti-CD47 mAb H3L9) VH: QVQLVQSGAEVKKPGASVKLSCKASGYTFTSYWMHWVRQAPGQGLEWIGNIDPSDSETHYNQKFKDRATLTVDTSTSTAYMELSSLRSEDTAVYYCSRWGYYGKSAMDYWGQGTLVTVSS VL: DVQLTQSPSFLSASVGDRVTITCRASKSISKYLAWYQQKPGKANKLLIYSGSTLQSGVPSRFSGSGSGTEFTLTISSLQPEDFAMYYCQQHNEYPWTFGGGTKVEIK
